One assay addresses Cse4 (recombinant) (S. cerevisiae, UniProt P36012 1-229). Briefly: reconstitution of the complex from the separate proteins.
Another assay concerns the target Cse4/H4 (S. cerevisiae, UniProt P36012 1-229; P02309 1-103). The description is as above.

Chain of Cse4/H4 (P36012 whole entry, one chain of several): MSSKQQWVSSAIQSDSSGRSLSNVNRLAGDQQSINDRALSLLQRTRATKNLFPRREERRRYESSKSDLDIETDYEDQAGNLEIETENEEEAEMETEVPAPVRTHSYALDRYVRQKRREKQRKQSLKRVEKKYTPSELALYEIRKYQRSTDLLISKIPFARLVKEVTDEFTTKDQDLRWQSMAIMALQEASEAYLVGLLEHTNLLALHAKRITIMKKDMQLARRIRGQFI
Chain of Cse4 (recombinant) (P36012 whole entry): as the sequence (P36012 whole entry, one chain of several) above

B1: His6-Scm3-Δ25N (recombinant) (domain or fragment, S. cerevisiae, UniProt Q12334 26-223, looked up)
chain: ESGKKSESKIRKHSDCNPVHRVYPPNIEKRKTKKDDGISRPIAERNGHVYIMSKENHIIPKLTDDEVMERHKLADENMRKVWSNIISKYESIEEQGDLVDLKTGEIVEDNGHIKTLTANNSTKDKRTKYTSVLRDIIDISDEEDGDKNDEYTLWANDSEASDSEVDADNDTEEEKDEKLIDADFKKYEAKLSKRILRD
B1: the binding result in the assay with Cse4 (recombinant) and in the assay with Cse4/H4 was “binds” throughout.

The record behind these values is publication PMC3069404 (The Journal of Biological Chemistry, 2011).
